Laboratory results published in paper PMC6773726, “The ubiquitin-like modifier FAT10 interferes with SUMO activation” (Nature Communications, 2019).
Substitutions are numbered along the chain they refer to.

T1: AOS1/UBA2, heterodimeric SUMO E1 activating enzyme, recombinant (human, UniProt Q9UBE0 1-346; Q9UBT2 1-640)
T1 construct: expressed from pET11d-UBA2; The N-terminal end of the His tag follows from the printed offset of +23 aa; also called SAE1/SAE2; not shown: 6His, N-terminal, kept
T1 sequence (looked up) 1: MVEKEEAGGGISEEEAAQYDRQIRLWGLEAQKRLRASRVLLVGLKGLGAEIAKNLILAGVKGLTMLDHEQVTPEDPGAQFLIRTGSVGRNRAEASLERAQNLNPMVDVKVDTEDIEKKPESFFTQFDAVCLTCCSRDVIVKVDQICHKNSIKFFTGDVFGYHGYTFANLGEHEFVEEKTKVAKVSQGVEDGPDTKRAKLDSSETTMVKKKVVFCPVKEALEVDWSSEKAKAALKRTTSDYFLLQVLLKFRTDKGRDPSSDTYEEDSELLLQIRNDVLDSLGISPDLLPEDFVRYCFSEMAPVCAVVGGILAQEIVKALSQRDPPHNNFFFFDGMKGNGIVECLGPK
T1 sequence (looked up) 2: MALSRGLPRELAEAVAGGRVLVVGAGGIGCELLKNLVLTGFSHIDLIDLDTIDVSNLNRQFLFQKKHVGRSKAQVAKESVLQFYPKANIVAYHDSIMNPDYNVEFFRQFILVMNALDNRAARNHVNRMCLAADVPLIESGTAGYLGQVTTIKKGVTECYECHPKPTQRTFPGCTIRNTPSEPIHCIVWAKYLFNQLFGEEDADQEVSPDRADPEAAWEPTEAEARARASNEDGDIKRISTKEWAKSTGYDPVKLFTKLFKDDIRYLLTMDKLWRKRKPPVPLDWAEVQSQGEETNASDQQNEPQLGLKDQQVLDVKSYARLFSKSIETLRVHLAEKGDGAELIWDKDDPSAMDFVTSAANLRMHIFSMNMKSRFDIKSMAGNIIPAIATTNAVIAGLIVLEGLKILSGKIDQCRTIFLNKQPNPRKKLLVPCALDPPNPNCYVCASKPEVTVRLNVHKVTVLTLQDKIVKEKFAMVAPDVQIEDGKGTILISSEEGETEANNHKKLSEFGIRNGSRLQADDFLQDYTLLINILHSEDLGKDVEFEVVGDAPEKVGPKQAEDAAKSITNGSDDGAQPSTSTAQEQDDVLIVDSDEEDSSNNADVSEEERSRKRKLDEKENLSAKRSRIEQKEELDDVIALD

B1: FAT10, recombinant, untagged (natural protein, human, UniProt O15205 2-165, looked up)
chain: APNASCLCVHVRSEEWDLMTFDANPYDSVKKIKEHVRSKTKVPVQDQVLLLGSKILKPRRSLSSYGIDKEKTIHLTLKVVKPSDEELPLFLVESGDEAKRHLLQVRRSSSVAQVKAMIETKTGIIPETQIVTCNGKRLEDGKMMADYGIRKGNLLFLACYCIGG
notes: FAT10 (ubiquitin D, UBD), human; also called wild-type FAT10; source: E. coli BL21(DE3) (pSUMO-FAT10), purified (HisTrap, tag removal with ULP-1, cation exchange)
B2: FAT10-AV, recombinant, untagged (natural protein, human, UniProt O15205 2-165, looked up)
chain: B1 chain with G163A, G164V
notes: FAT10 (ubiquitin D, UBD), human, C-terminal diglycine motif changed from GG to AV; also called FAT10 diglycine mutant FAT10-AV; source: E. coli BL21(DE3) (pSUMO-FAT10-AV), purified (HisTrap, tag removal with ULP-1, cation exchange)
B3: GST-FAT10 (natural protein, human, UniProt O15205 1-165, looked up)
chain: MAPNASCLCVHVRSEEWDLMTFDANPYDSVKKIKEHVRSKTKVPVQDQVLLLGSKILKPRRSLSSYGIDKEKTIHLTLKVVKPSDEELPLFLVESGDEAKRHLLQVRRSSSVAQVKAMIETKTGIIPETQIVTCNGKRLEDGKMMADYGIRKGNLLFLACYCIGG
notes: FAT10 (ubiquitin D, UBD), human; also called FAT10 (in the sentence that gives the Kd); source: E. coli BL21(DE3) (pGEX4T-3-FAT10), purified (glutathione agarose, PD-10 desalting)

Tests used:
[1] = biological target: T1, AOS1/UBA2, heterodimeric SUMO E1 …; assay: co-IP; recombinant proteins: 25 nM AOS1/UBA2 with 0.7 uM of each FAT10 variant in in vitro buffer without ATP; FAT10 precipitated with the antibody 4F1 on protein A sepharose, 3 h at 8 °C; blots for the E1 subunits; conditions: both partners purified
[2] = biological target: T1, AOS1/UBA2, heterodimeric SUMO E1 …; assay: BLI; Octet (Forte Bio); sensors loaded with 0.1 mg/ml AOS1/UBA2; GST-FAT10 at 0.5, 0.25, 0.1 and 0.05 mg/ml measured versus GST; buffer TNT (50 mM Tris HCl pH 7.6, 100 mM NaCl, 0.1% Triton X-100); association 600 s, dissociation 600 s; conditions: both partners purified

Row | Binder | binding result [1] | Kd [2]
1 | B1 | binds | 
2 | B2 | binds | 
3 | B3 |  | 1800 nM
